Assay results reported in patent publication US12649008B2, “Peptide receptor radionuclide therapy” (The Regents of the University of California, priority 2020, dated 2026).
Like-named read-outs stand apart in the source and are kept apart here.

Key:
[1] = Biodistribution in mice bearing BxPC-3 tumors; assay type: in vivo; details: female, nu/nu nude, mouse, iv, total radioactivity; for tissue uptake at 1 h: 1 h p.i.; for tissue uptake at 4 h: 4 h p.i.; for tissue uptake at 24 h: 24 h p.i.; for tissue uptake at 48 h: 48 h p.i.; for tissue uptake at 72 h: 72 h p.i.
Method: (§1) Female nu/nu nude mice (6-8 weeks old) were purchased from Charles River Laboratories (Wilmington, MA, USA) and handled according to the UC Davis Institutional Animal Care and Use Committee. BxPC-3 cells (5×10^6) in 100 μl 1:1 GFR-Matrigel: serum-free RPMI were implanted subcutaneously into the left shoulder flank and allowed to grow for approximately 2 weeks (therapy study) and 3 weeks (0.5-1 cm in diameter, for imaging and biodistribution studies). All cells were evaluated with flow cytometry before injection to confirm integrin expression levels. Food and water were available ad libitum.
(§2) For blocking studies, respective non-chelated cold peptide (30 mg/kg, 10 mg/mL (DOTA-5G) and 48 mg/kg, 16 mg/mL (DOTA-ABM-5G) solution in PBS) was injected 10 min. before the formulated radiotracer. At each time point, the mice (n=3/time point/radiotracer) were anesthetized and sacrificed. The tissues were collected, rinsed with PBS, and the radioactivity of each measured with a gamma counter. Radioactivity concentrations were calibrated, decay-corrected, and expressed as percent of injected dose per gram of tissue (% ID/g).

BxPC-3 (αvβ6 (+)) tumors [2] = experiment: Biodistribution in mice bearing BxPC-3 tumors; assay type: in vivo
Method: as §1, §2

[3] = Blocking study (cold peptide 10 min before radiotracer), biodistribution; assay type: in vivo, mice; details: female, nu/nu nude, mouse, BxPC-3 tumor, iv, total radioactivity; 4 h p.i.; DOTA-ABM-5G 48 mg/kg 10 min before
Method: as §1, §2

BxPC-3 (αvβ6 (+)) tumors [4] = experiment: as above; assay type: in vivo, mice; details: 4 h p.i.
Method: as §1, §2

mouse serum proteins = experiment: Serum protein (albumin) binding by ultrafiltration, mouse serum; assay type: in vitro ADME; details: 37° C.
Method: The devices were pre-treated with PBS containing Tween 20 (5% v/v) as disclosed in Hausner 2007, followed by triplicate rinses with PBS. An aliquot of each formulated radiotracer in PBS (≤25 μL, 20-60 KBq) was thoroughly mixed with 0.5 mL serum at 37° C. in a microfuge tube. The mixture was incubated at 37° C. for 5 min and an aliquot (50 μL) of was transferred to a tube for γ-counting. The remaining sample was transferred to a Centrifree Ultrafiltration device and centrifuged for 40 min. at 1500×g at ambient temperature (20-24° C.). An aliquot (50 μL) of the filtrate was transferred to a tube for γ-counting. For each radiotracer, a blank was run using 0.5 mL PBS/Tween 20 (5% v/v) instead of serum (n=4) to determine non-specific binding. Following γ-counting, the protein-bound radioactivity was calculated by subtracting the counts measured in the filtrate aliquot (i.e., not protein bound) from the counts in the corresponding serum aliquot. The data are expressed as mean±standard deviation of fraction of radioactivity bound to protein after subtraction of non-specific binding determined in the blank.

[5] = In vitro serum stability, human serum; assay type: in vitro ADME; details: 37° C., read-out: stability in human serum (intact radiotracer)
Method: Mouse or human serum (500 μl, both purchased from Millipore Sigma) was combined with an aliquot of the formulated radiotracer (100-200 μCi) and incubated at 37° C. Aliquots (100-200 μl) were drawn for analysis at 1 and 2 h post-incubation for the ^68Ga radiotracers and 1 and 24 h post-incubation for ^177Lu radiotracers, mixed with absolute ethanol (500 μl, 4° C.), and centrifuged (2300× g, 3 min) to precipitate out serum proteins. The supernatant was diluted with HPLC Solvent A and analyzed by radio-HPLC to determine the fraction of intact radiotracer as disclosed in Hausner et al., “In vitro and in vivo evaluation of the effects of aluminum [^18F]fluoride radiolabeling on an integrin αvβ6-specific peptide” Nuclear medicine and biology.

[6] = BxPC-3 tumor, read-out: uptake BxPC-3 tumor
[7] = bladder, read-out: uptake Bladder
[8] = gall bladder, read-out: uptake Gall Bladder
[9] = kidneys, read-out: uptake Kidneys
[10] = large intestines, read-out: uptake Lg Intestines
[11] = muscle, read-out: uptake Muscle
[12] = pancreas, read-out: uptake Pancreas
[13] = small intestines, read-out: uptake Sm Intestines
[14] = spleen, read-out: uptake Spleen
[15] = stomach, read-out: uptake Stomach

CNC(=O)C(CCCCNC(=O)C(CC(=O)O)NC(=O)CCCNC(=O)CCCc1ccc(I)cc1)NC(=O)CN1CCN2CCN3CCN(CC1)CC(=O)[O][177Lu]([O]C(=O)C2)[O]C(=O)C3 (stereo not drawn) [[^177Lu]Lu DOTA-ABM-5G]
tissue uptake at 1 h [1, 6]: 4.54 ± 0.42 %ID/g
tissue uptake at 4 h [1, 6]: 7.15 ± 3.04 %ID/g
tissue uptake at 24 h [1, 6]: 5.25 ± 0.71 %ID/g
tissue uptake at 48 h [1, 6]: 5.12 ± 0.47 %ID/g
tissue uptake at 72 h [1, 6]: 5.29 ± 0.75 %ID/g
tissue uptake at 1 h [1, 7]: 6.75 ± 2.39 %ID/g
tissue uptake at 24 h [1, 7]: 2.91 ± 0.16 %ID/g
tissue uptake at 48 h [1, 7]: 2.69 ± 0.33 %ID/g
tissue uptake at 72 h [1, 7]: 3.29 ± 0.63 %ID/g
tissue uptake at 1 h ([1]; blood, read-out: uptake Blood): 5.36 ± 0.71 %ID/g
tissue uptake at 24 h ([1]; blood, read-out: uptake Blood): 0.08 ± 0.01 %ID/g
tissue uptake at 48 h ([1]; blood, read-out: uptake Blood): 0.02 %ID/g
tissue uptake at 72 h ([1]; blood, read-out: uptake Blood): 0.01 %ID/g
tissue uptake at 1 h ([1]; bone, read-out: uptake Bone): 0.66 ± 0.15 %ID/g
tissue uptake at 24 h ([1]; bone, read-out: uptake Bone): 0.27 ± 0.08 %ID/g
tissue uptake at 48 h ([1]; bone, read-out: uptake Bone): 0.16 ± 0.19 %ID/g
tissue uptake at 72 h ([1]; bone, read-out: uptake Bone): 0.19 ± 0.13 %ID/g
tissue uptake at 1 h ([1]; brain, read-out: uptake Brain): 0.14 ± 0.01 %ID/g
tissue uptake at 24 h ([1]; brain, read-out: uptake Brain): 0.04 ± 0.01 %ID/g
tissue uptake at 48 h ([1]; brain, read-out: uptake Brain): 0.02 %ID/g
tissue uptake at 72 h ([1]; brain, read-out: uptake Brain): 0.03 %ID/g
tissue uptake at 1 h [1, 8]: 1.72 ± 0.46 %ID/g
tissue uptake at 24 h [1, 8]: 1.11 ± 0.71 %ID/g
tissue uptake at 48 h [1, 8]: 0.71 ± 0.13 %ID/g
tissue uptake at 72 h [1, 8]: 1.09 ± 0.61 %ID/g
tissue uptake at 1 h ([1]; heart, read-out: uptake Heart): 2.05 ± 0.37 %ID/g
tissue uptake at 24 h ([1]; heart, read-out: uptake Heart): 0.71 ± 0.05 %ID/g
tissue uptake at 48 h ([1]; heart, read-out: uptake Heart): 0.64 ± 0.06 %ID/g
tissue uptake at 72 h ([1]; heart, read-out: uptake Heart): 0.46 ± 0.11 %ID/g
tissue uptake at 1 h [1, 9]: 20.9 ± 3.1 %ID/g
tissue uptake at 24 h [1, 9]: 12.3 ± 1.24 %ID/g
tissue uptake at 48 h [1, 9]: 10.1 ± 1.04 %ID/g
tissue uptake at 72 h [1, 9]: 8.84 ± 1.15 %ID/g
tissue uptake at 1 h [1, 10]: 6.31 ± 1.86 %ID/g
tissue uptake at 4 h [1, 10]: < 7 %ID/g
tissue uptake at 24 h [1, 10]: 3.63 ± 0.09 %ID/g
tissue uptake at 48 h [1, 10]: 3.13 ± 0.53 %ID/g
tissue uptake at 72 h [1, 10]: 3.01 ± 0.44 %ID/g
tissue uptake at 1 h ([1]; liver, read-out: uptake Liver): 1.05 ± 0.05 %ID/g
tissue uptake at 4 h ([1]; liver, read-out: uptake Liver): < 1 %ID/g
tissue uptake at 24 h ([1]; liver, read-out: uptake Liver): 0.22 ± 0.01 %ID/g
tissue uptake at 48 h ([1]; liver, read-out: uptake Liver): 0.16 ± 0.02 %ID/g
tissue uptake at 72 h ([1]; liver, read-out: uptake Liver): 0.12 ± 0.01 %ID/g
tissue uptake at 1 h ([1]; lung, read-out: uptake Lung): 2.68 ± 0.21 %ID/g
tissue uptake at 24 h ([1]; lung, read-out: uptake Lung): 1.1 ± 0.15 %ID/g
tissue uptake at 48 h ([1]; lung, read-out: uptake Lung): 0.68 ± 0.08 %ID/g
tissue uptake at 72 h ([1]; lung, read-out: uptake Lung): 0.53 ± 0.1 %ID/g
tissue uptake at 1 h [1, 11]: 0.96 ± 0.24 %ID/g
tissue uptake at 24 h [1, 11]: 0.52 ± 0.08 %ID/g
tissue uptake at 48 h [1, 11]: 0.52 ± 0.03 %ID/g
tissue uptake at 72 h [1, 11]: 0.42 ± 0.02 %ID/g
tissue uptake at 1 h [1, 12]: 0.92 ± 0.07 %ID/g
tissue uptake at 24 h [1, 12]: 0.6 ± 0.11 %ID/g
tissue uptake at 48 h [1, 12]: 0.5 ± 0.09 %ID/g
tissue uptake at 72 h [1, 12]: 0.36 ± 0.12 %ID/g
tissue uptake at 1 h ([1]; skin, read-out: uptake Skin): 2.16 ± 0.35 %ID/g
tissue uptake at 24 h ([1]; skin, read-out: uptake Skin): 1.49 ± 0.57 %ID/g
tissue uptake at 48 h ([1]; skin, read-out: uptake Skin): 0.95 ± 0.05 %ID/g
tissue uptake at 72 h ([1]; skin, read-out: uptake Skin): 1.08 ± 0.16 %ID/g
tissue uptake at 1 h [1, 13]: 5.46 ± 0.54 %ID/g
tissue uptake at 24 h [1, 13]: 3.02 ± 0.32 %ID/g
tissue uptake at 48 h [1, 13]: 1.74 ± 0.22 %ID/g
tissue uptake at 72 h [1, 13]: 0.71 ± 0.16 %ID/g
tissue uptake at 1 h [1, 14]: 0.75 ± 0.03 %ID/g
tissue uptake at 24 h [1, 14]: 0.12 ± 0.01 %ID/g
tissue uptake at 48 h [1, 14]: 0.1 ± 0.02 %ID/g
tissue uptake at 72 h [1, 14]: 0.1 ± 0.01 %ID/g
tissue uptake at 1 h [1, 15]: 9.16 ± 0.58 %ID/g
tissue uptake at 24 h [1, 15]: 7.55 ± 1.45 %ID/g
tissue uptake at 48 h [1, 15]: 5.49 ± 0.27 %ID/g
tissue uptake at 72 h [1, 15]: 4.76 ± 1.22 %ID/g
BxPC-3/kidney ratio (BxPC-3 (αvβ6 (+)) tumors [2]; 1 h p.i.): 0.22±0.05
BxPC-3/large intestine ratio (BxPC-3 (αvβ6 (+)) tumors [2]; 1 h p.i.): 0.77±0.25
BxPC-3/stomach ratio (BxPC-3 (αvβ6 (+)) tumors [2]; 1 h p.i.): 0.50±0.08
uptake Blood (BxPC-3 (αvβ6 (+)) tumors [2]; 1 h p.i.): 5.36±0.71 % ID/g
uptake BxPC-3 tumor (BxPC-3 (αvβ6 (+)) tumors [2]; 1 h p.i.): 4.54±0.42 % ID/g
uptake Kidneys (BxPC-3 (αvβ6 (+)) tumors [2]; 1 h p.i.): 20.89±3.1 % ID/g
uptake Stomach (BxPC-3 (αvβ6 (+)) tumors [2]; 1 h p.i.): 9.16±0.58 % ID/g
BxPC-3/kidney ratio (BxPC-3 (αvβ6 (+)) tumors [2]; 72 h p.i.): 0.60±0.02
BxPC-3/large intestine ratio (BxPC-3 (αvβ6 (+)) tumors [2]; 72 h p.i.): 1.77±0.26
BxPC-3/stomach ratio (BxPC-3 (αvβ6 (+)) tumors [2]; 72 h p.i.): 1.16±0.30
uptake Blood (BxPC-3 (αvβ6 (+)) tumors [2]; 72 h p.i.): 0.01±0.00 % ID/g
uptake BxPC-3 tumor (BxPC-3 (αvβ6 (+)) tumors [2]; 72 h p.i.): 5.29±0.75 % ID/g
uptake Kidneys (BxPC-3 (αvβ6 (+)) tumors [2]; 72 h p.i.): 8.84±1.15 % ID/g
uptake Stomach (BxPC-3 (αvβ6 (+)) tumors [2]; 72 h p.i.): 4.76±1.22 % ID/g
uptake in BxPC-3 tumor as compared to [^177Lu]Lu DOTA-5G (BxPC-3 (αvβ6 (+)) tumors [2]; at all times (1-72 h)): at least 4 fold
tissue uptake at 4 h [3]: 4.12 %ID/g
change of BxPC-3 tumor uptake by blocking (Δ) (BxPC-3 (αvβ6 (+)) tumors [4]): −42%
albumin (serum protein) binding (mouse serum proteins): 54.4±2.8%
remaining at 24 h [5]: ≥ 97%
